Data set [1] concerns CC(=O)Oc1ccc(C(Cl)CNC(C)C)cc1OC(C)=O. Particulars: Cerebral cortex.
Description: (§1) Evaluated for the affinity in stimulating cAMP synthesis by beta-1 adrenergic receptor in rat cerebral cortex.
Data set [2] has as its system CC(=O)Oc1ccc(C(O)CNC(C)C)cc1OC(C)=O. Particulars: Cerebral cortex.
Description: as §1

This is an account of results in ChEMBL document CHEMBL1122882, “3,4-O-diacetylisoproterenol. Preparation, structure proof, and beta-receptor effect” (1985).

Sequence of Beta-1 adrenergic receptor (Rattus norvegicus), P18090 (P18090 whole entry): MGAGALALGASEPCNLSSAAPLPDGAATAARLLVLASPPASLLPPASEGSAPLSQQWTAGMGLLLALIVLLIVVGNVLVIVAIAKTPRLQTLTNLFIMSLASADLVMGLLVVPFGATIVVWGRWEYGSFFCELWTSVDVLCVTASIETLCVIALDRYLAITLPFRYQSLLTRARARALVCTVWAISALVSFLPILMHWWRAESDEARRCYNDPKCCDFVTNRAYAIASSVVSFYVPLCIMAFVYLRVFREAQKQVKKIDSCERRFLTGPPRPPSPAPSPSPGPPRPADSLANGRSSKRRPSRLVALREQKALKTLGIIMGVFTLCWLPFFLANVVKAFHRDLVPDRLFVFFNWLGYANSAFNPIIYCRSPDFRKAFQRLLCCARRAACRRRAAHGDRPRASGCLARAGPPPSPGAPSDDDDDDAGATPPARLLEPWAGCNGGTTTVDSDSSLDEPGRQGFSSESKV

A word on the Km: it is the concentration of substrate that gives half-maximal velocity. For the substance “Beta-1 adrenergic receptor (Rattus norvegicus), P18090”, the Michaelis-Menten constant (Km) in data set [1] was determined as 28 µM; in data set [2], 25 µM.
